# Measurements published in the RNAGym collection of RNA variant scans (doi:10.7554/elife.90254).
# B1: LINE1-full (parent)
# chain: UACGUAGGUGGUUUUCCCCUGAUAGUGCUAAGGGGGCCUGGAAGUUUGGACUGGGCAGAGCUCAACACAGCGUGGCAAAGUGGCUGUGGCUAGACUGCCUCUCUGGAUUCCUCGUCACUCAGCAGGGCAUCUCUGAGAGAAAUGCC
# Variants of: B1
# Assay: self-cleavage, relative activity (ratio to wild type); higher = more cleavage; in vitro, sequencing; the parent is a self-cleaving ribozyme
row,Variant,self-cleavage
1,G58U A78G,0.03
2,U29C U47C,1.85
3,U29C U47A,1.11
4,A43G U112C,1.2
5,A31U A50G,0.16
6,U130C A142C,1.76
7,A22C A124G,1.92
8,A22G U81C,1.18
9,U46A A94G,0.16
10,U13C G54U,0.6
11,A24G U26C,0.97
12,U13C G55C,0.25
13,A67G A121G,0.53
14,A77C U81C,0
15,A24G G97A,0.17
16,A67U U108A,0.16
17,G25U A42G,1.04
18,A57G C63U,0.17
19,A67U A142U,0.14
20,U108C U115C,1.86
21,G49A A117G,1.24
22,U15C C17G,1.13
23,G48A U143A,1.64
24,A77G A117U,2.58

row,Variant,self-cleavage
1,A107U A136G,1.92
2,U15C G35U,1.55
3,A121C C146U,1.77
4,A42G A92G,0.15
5,U96A U100C,0.08
6,A57U A141G,0.11
7,C51A U100C,1.93
8,C61G U100C,0.06
9,U73C G125U,2.15
10,U115C A124C,2.09
11,A24G A69U,0.21
12,A42G U132C,1.48
13,C19A A142U,1.36
14,C84A U100C,0.14
15,A92U U100C,0.9
16,U39C A69U,0.06
17,A92G U96A,0.13
18,A78G U115A,1.12
19,U73C G106A,1.7
20,C56U A77G,0.16
21,U15C G75A,1.28
22,U29C A64G,0.38
23,U14G,0.82
24,G125C U134C,1.58

row,Variant,self-cleavage
1,A6G G11C,0.31
2,U20C A78G,1.52
3,G34A U62C,0.02
4,G4A U13C,1.12
5,G70A U100C,0.29
6,G97A A142C,0.14
7,G54U A121G,0.97
8,C3A A124U,0.6
9,U1A U14A,0.89
10,U13C A59G,0.13
11,U9C G122A,1.43
12,U45G G106C,0.92
13,G32A A77G,1.56
14,U15C C113U,1.71
15,U13C A129C,1.33
16,G10A C95A,0.03
17,A107G G139A,1.19
18,U52A A140U,1.57
19,U13C G126U,1.2
20,A59C U73A,1.45
21,C111A A141G,1.03
22,G35A G106A,1.21
23,G36A C95G,0.02
24,U9A U109C,1.34

row,Variant,self-cleavage
1,C17U U132C,0.95
2,U20C A94U,0.28
3,A57U G58U,0.04
4,G32C A42U,1.67
5,C28G U85A,0.23
6,A31C U45G,0
7,U112C A136G,1.51
8,U100C U130C,2.16
9,G8A U62C,0.05
10,A59G C123U,0.05
11,U73A U112A,2.03
12,U15C A50G,1.11
13,U9C U23C,1.68
14,G34A A124G,0
15,U62A A121G,0.06
16,G126C A140G,2.25
17,G72C C111U,1.1
18,G21C U47A,0.91
19,U81C G122U,1.14
20,A42G U134G,1.68
21,U109C G126A,1.83
22,A24U U130C,1.35
23,U29A C66U,0.25
24,G53U A77G,2.05

row,Variant,self-cleavage
1,A59G U108A,0.11
2,C113A U132C,1.44
3,U52A C110G,1.15
4,U9G A42G,1.4
5,U87A C146U,0.09
6,A22U C99U,0.51
7,C68U A129G,0.06
8,U20C U143C,1.29
9,C51U U52C,0.99
10,U26C A64G,0.39
11,C19G A78G,1.24
12,A129U A140G,1.53
13,A43U U91C,0.68
14,U1C U115A,0.98
15,A31G U85C,0.33
16,U47C C128U,1.42
17,U26C U87A,0.08
18,G4A U26C,0.61
19,U87G U100C,0.28
20,G34A C37U,1.1
21,A92G C131G,0.22
22,U13A A67G,0.22
23,U73C A121U,1.89
24,U23A U130A,1.52

row,Variant,self-cleavage
1,U45C G53A,1.64
2,U143C C145U,1.06
3,C71A U96A,0.09
4,G36A G105A,1.46
5,U81A C120A,2.51
6,G21A A65C,0.02
7,U46C A138G,1.29
8,U23C U39C,0.87
9,U23C U39A,1.2
10,U96A U130C,0.06
11,U45G U73A,1.49
12,A94G A129G,0.11
13,U20A A43G,1.12
14,C19U U26A,0.95
15,U12A A50C,0.57
16,C51U A121G,1.85
17,A50G A94U,0.27
18,A92G A107G,0.17
19,U26C G93C,0.17
20,A24G G75A,1.02
21,A78U U100C,2.81
22,A2C U39A,1.3
23,U119C G135A,2.34
24,G74A U119A,0.84

row,Variant,self-cleavage
1,U20C G114A,1.57
2,G75A A79G,0.83
3,U15C C56A,0.04
4,U45C A94U,0.33
5,C38A A50G,0.51
6,U46G A50G,0.92
7,U9C A42G,1.32
8,U26C U52C,0.98
9,G21U U134A,1.27
10,U109C C113U,1.28
11,C68A C146U,0.06
12,U62A A77G,0.07
13,A30G G44C,0.8
14,U73C A142G,1.82
15,U29C U52C,1.84
16,A64C A142U,0.37
17,U12C G126A,1.73
18,A59U A124G,0.75
19,U87A A141G,0.06
20,U13C U73G,0.91
21,U104A U132C,1.08
22,A65G U115A,0.04
23,U15C G114A,0.71
